{
  "source": "patent US8613927B2",
  "about": "“High affinity human antibodies to human nerve growth factor” (Regeneron Pharmaceuticals, Inc., priority 2007, dated 2013)",
  "key": {"[1]": {"biological_target": "T1, NT-3 signaling through TrkC (engineered HEK293 cell line expressing TrkC) (Homo sapiens, UniProt P20783)", "T1 construct": "host or cells: NT-3 added exogenously; partner TrkC made by an engineered HEK293 line", "T1 sequence (P20783 139-257)": "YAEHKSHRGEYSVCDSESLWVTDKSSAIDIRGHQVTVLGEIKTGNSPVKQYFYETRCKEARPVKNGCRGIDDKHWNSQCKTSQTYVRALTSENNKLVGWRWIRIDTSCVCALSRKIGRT", "assay": "HEK293/TrkC SRE-luciferase bioassay of NT-3 signaling", "format": "cell-based", "details": "15 pM NT-3; 6 hours; read-out: IC50, inhibition of NT-3-mediated luciferase activity", "experimental": "An engineered HEK293 cell line expressing TrkC was transfected with a SRE-luciferase reporter plasmid. NT-3 drives luciferase expression in a 6-hour assay. […] The engineered HEK293 cell line was seeded onto 96-well plates at 1×10^4 cells/well in serum-free media and incubated overnight at 37° C., 5% CO2. […] The cells were then incubated at 37° C., 5% CO2 for 6 hours. Luciferase activity was determined by adding an equal well volume of BRIGHT GLOW™ (Promega)."}, "NGF": {"biological_target": "NGF (Homo sapiens, UniProt P01138, DEL136-138/DEL208-209)", "sequence (P01138 with tags, fused parts or gaps DEL136-138/DEL208-209)": "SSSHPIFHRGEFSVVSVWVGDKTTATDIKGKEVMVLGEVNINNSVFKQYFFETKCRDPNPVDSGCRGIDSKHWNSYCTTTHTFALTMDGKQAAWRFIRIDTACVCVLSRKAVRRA", "assay": "BIACORE cross-reactivity test, NGF injected at 20 nM", "format": "binding", "details": "Table 3; NGF 20 nM", "experimental": "The anti-NGF antibodies were examined for binding cross-reactivity with human NT-3. Briefly, goat anti-human IgG polyclonal antibody was chemically linked to a CM5 chip. Anti-NGF monoclonal antibodies were injected forming a surface of about 50 to 900 RU of immobilized antibody through the interaction with the chip coupled polyclonal antibodies. NGF or NT-3 protein at a concentration of 20 nM was injected over the surface, followed by a buffer wash to allow bound ligand to dissociate. Both association and dissociation phases were monitored and data were analyzed. Results are shown in Table 3 (NB=no binding activity observed)."}, "mouse NGF (mNGF)": {"biological_target": "mouse NGF (mNGF) (Mus musculus, UniProt P01139)", "sequence (P01139 122-241)": "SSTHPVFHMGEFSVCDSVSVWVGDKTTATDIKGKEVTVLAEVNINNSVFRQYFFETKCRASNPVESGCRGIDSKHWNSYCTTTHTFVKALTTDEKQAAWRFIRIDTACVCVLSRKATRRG", "assay": "BIACORE binding affinity to mouse NGF", "experimental": "Antigen binding affinities of the antibodies for human NGF were determined by surface kinetics using a real-time biosensor surface plasmon resonance assay (BIACORE™). Antibodies were captured on either a goat, anti-human or anti-mouse IgG polyclonal antibody surface created by direct amine coupling of the capture antibody to a BIACORE™ chip. Various concentrations of human NGF were injected over the captured antibody surfaces while the association of the antigen to the antibody and the dissociation of the bound complex were monitored in real time. Kinetic analysis was performed to obtain the equilibrium dissociation constant (KD) and dissociation rate constant, and the latter was used to calculate the antigen/antibody complex dissociation t1/2 (Table 1).\nHuman NGF (NGF) is highly homologous in amino acid sequence to mouse NGF (mNGF) and rat NGF (rNGF) with about 90% identity. The binding affinities of the antibodies to both mNGF and rNGF were determined as described above.\nThe binding affinity of selected purified anti-NGF antibodies to mNGF and rNGF were also determined (Table 6)."}},
  "data": [
    {"substance": "tanezumab [RN624]", "values": [
      {"measurement": "IC50", "setting": "[1]", "result": "150 to 200", "unit": "nM"},
      {"measurement": "Kd", "setting": "NGF", "result": 1.3, "unit": "pM"},
      {"measurement": "Kd", "setting": "mouse NGF (mNGF); Table 5", "result": 1.4, "unit": "pM"},
      {"measurement": "Kd", "setting": "mouse NGF (mNGF); Table 6, selected purified antibodies", "result": 1.4, "unit": "pM"}
    ]}
  ]
}
